Substitutions are numbered along the chain they refer to.
Assays:
Assay in all cases: cell-based or functional assay
[1] = biological target: T1, YeaW variant K117S (E. coli, UniProt P0ABR7 1-374, K117S)
T1 sequence (looked up): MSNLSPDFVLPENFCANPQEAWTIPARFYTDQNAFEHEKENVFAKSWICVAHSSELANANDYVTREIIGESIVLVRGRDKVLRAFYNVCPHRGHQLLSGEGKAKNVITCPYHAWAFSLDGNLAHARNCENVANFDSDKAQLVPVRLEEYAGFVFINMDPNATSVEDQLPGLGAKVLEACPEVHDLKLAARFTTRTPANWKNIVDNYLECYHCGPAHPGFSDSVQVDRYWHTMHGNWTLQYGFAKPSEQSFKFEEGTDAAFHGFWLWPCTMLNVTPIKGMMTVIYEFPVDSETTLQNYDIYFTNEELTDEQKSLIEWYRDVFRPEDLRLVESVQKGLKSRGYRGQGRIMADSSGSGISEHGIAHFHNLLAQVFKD

[2] = biological target: T2, YeaW variant D135S (E. coli, UniProt P0ABR7 1-374, D135S)
T2 sequence (looked up): T1 sequence (looked up) with S117K, D135S

[3] = biological target: T3, YeaW variant K138S (E. coli, UniProt P0ABR7 1-374, K138S)
T3 sequence (looked up): T1 sequence (looked up) with S117K, K138S

[4] = biological target: T4, YeaW variant D135K (E. coli, UniProt P0ABR7 1-374, D135K)
T4 sequence (looked up): T1 sequence (looked up) with S117K, D135K

[5] = biological target: T5, YeaW variant D221K (E. coli, UniProt P0ABR7 1-374, D221K)
T5 sequence (looked up): T1 sequence (looked up) with S117K, D221K

[6] = biological target: T6, YeaW variant K104E (E. coli, UniProt P0ABR7 1-374, K104E)
T6 sequence (looked up): T1 sequence (looked up) with K104E, S117K

[7] = biological target: T7, YeaW variant K104S (E. coli, UniProt P0ABR7 1-374, K104S)
T7 sequence (looked up): T1 sequence (looked up) with K104S, S117K

B1: YeaX, reductase component of carnitine monooxygenase from E. coli (enzyme, UniProt P76254 1-321, looked up)
chain: MSDYQMFEVQVSQVEPLTEQVKRFTLVATDGKPLPAFTGGSHVIVQMSDGDNQYSNAYSLLSSPHDTSCYQIAVRLEENSRGGSRFLHQQVKVGDRLTISTPNNLFALIPSARKHLFIAGGIGITPFLSHMAELQHSDVDWQLHYCSRNPESCAFRDELVQHPQAEKVHLHHSSTGTRLELARLLADIEPGTHVYTCGPEALIEAVRSEAARLDIAADTLHFEQFAIEDKTGDAFTLVLARSGKEFVVPEEMTILQVIENNKAAKVECLCREGVCGTCETAILEGEADHRDQYFSDEERASQQSMLICCSRAKGKRLVLDL
[1]
  L-carnitine depletion activity (wild type = 100%): 122%
  O2 depletion activity (wild type = 100%): 109%
[2]
  L-carnitine depletion activity (wild type = 100%): 106%
  O2 depletion activity (wild type = 100%): 106%
[3]
  L-carnitine depletion activity (wild type = 100%): 96%
  O2 depletion activity (wild type = 100%): 97%
[4]
  L-carnitine depletion activity (wild type = 100%): 94%
  O2 depletion activity (wild type = 100%): 97%
[5]
  L-carnitine depletion activity (wild type = 100%): 81%
  O2 depletion activity (wild type = 100%): 76%
[6]
  L-carnitine depletion activity (wild type = 100%): 6%
  O2 depletion activity (wild type = 100%): 12%
[7]
  L-carnitine depletion activity (wild type = 100%): 70%
  O2 depletion activity (wild type = 100%): 66%
